Tests used:
Experiment in all cases: holdup assay
Set-up in all cases: key: below the threshold = too weak to quantify, mostly under pKd 3.1 to 4
HTRA3, P83110 = biological target: T1, HTRA3, P83110
T1 sequence (P83110 354-453, limits assumed, looked up): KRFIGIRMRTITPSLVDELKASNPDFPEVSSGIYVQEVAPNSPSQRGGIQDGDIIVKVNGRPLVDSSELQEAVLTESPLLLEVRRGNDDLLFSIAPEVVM

PARD3B_1, Q8TEW8 = biological target: T2, PARD3B_1, Q8TEW8
T2 sequence (Q8TEW8 196-299, limits assumed, looked up): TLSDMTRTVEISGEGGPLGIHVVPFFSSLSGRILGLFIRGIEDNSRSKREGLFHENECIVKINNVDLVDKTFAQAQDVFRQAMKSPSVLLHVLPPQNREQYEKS

SCRIB_2, Q14160 = biological target: SCRIB_2, Q14160
Sequence of SCRIB_2, Q14160 (Q14160 857-960): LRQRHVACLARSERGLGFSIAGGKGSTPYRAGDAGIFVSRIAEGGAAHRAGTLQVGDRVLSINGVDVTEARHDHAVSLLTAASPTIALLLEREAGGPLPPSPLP

MPP7, Q5T2T1 = biological target: T3, MPP7, Q5T2T1
T3 sequence (Q5T2T1 134-230, limits assumed, looked up): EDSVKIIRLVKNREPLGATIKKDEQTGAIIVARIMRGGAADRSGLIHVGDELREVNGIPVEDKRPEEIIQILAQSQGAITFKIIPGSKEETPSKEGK

DLG2_2, Q15700 = biological target: DLG2_2, Q15700
Sequence of DLG2_2, Q15700 (Q15700 189-283): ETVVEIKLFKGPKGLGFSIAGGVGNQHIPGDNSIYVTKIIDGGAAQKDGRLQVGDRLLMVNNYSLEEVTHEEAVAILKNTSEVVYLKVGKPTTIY

SIPA1L2, Q9P2F8 = biological target: T4, SIPA1L2, Q9P2F8
T4 sequence (Q9P2F8 945-1036, limits assumed, looked up): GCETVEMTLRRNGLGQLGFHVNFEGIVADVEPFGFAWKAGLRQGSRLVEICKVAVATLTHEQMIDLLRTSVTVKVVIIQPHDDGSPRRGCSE

Inadl_9, Q8NI35 = biological target: Inadl_9, Q8NI35
Sequence of Inadl_9, Q8NI35 (Q8NI35 1530-1615): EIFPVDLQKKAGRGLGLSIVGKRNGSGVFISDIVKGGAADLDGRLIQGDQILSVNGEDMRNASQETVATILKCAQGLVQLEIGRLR

PARD3_3, Q8TEW0 = biological target: PARD3_3, Q8TEW0
Sequence of PARD3_3, Q8TEW0 (Q8TEW0 582-685): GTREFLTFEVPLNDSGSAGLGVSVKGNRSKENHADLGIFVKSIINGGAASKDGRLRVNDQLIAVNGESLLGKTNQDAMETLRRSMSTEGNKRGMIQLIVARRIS

IL16_1, Q14005 = biological target: IL16_1, Q14005
Sequence of IL16_1, Q14005 (Q14005 210-306): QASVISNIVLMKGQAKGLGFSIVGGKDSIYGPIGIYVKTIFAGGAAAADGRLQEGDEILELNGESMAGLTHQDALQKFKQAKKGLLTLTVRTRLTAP

SNTA1, Q13424 = biological target: T5, SNTA1, Q13424
T5 sequence (Q13424 82-180, limits assumed, looked up): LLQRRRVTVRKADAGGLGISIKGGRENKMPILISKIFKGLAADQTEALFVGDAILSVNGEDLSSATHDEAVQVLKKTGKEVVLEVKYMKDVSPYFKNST

MAST1, Q9Y2H9 = biological target: MAST1, Q9Y2H9
Sequence of MAST1, Q9Y2H9 (Q9Y2H9 962-1065): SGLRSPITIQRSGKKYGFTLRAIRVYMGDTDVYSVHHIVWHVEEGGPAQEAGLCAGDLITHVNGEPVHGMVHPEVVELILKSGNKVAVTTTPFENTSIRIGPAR

Inadl_4, Q8NI35 = biological target: Inadl_4, Q8NI35
Sequence of Inadl_4, Q8NI35 (Q8NI35 547-651): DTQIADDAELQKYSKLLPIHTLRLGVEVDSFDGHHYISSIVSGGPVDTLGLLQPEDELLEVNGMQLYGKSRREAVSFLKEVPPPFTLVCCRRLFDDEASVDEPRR

LNX2_3, Q8N448 = biological target: T6, LNX2_3, Q8N448
T6 sequence (Q8N448 463-564, limits assumed, looked up): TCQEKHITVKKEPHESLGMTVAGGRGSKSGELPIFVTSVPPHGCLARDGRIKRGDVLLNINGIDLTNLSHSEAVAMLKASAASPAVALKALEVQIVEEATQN

ARHGEF11, O15085 = biological target: T7, ARHGEF11, O15085
T7 sequence (O15085 42-136, limits assumed, looked up): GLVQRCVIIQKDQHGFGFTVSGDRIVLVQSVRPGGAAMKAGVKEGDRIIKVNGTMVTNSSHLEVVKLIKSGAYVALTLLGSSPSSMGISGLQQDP

NHERF4_1, Q86UT5-2 = biological target: NHERF4_1, Q86UT5-2
Sequence of NHERF4_1, Q86UT5-2 (Q86UT5 other isoform, or with tags, fused parts or gaps): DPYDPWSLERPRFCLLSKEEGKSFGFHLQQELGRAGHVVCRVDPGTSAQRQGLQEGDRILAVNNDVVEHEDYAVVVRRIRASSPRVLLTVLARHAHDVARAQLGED

NHERF2_2, Q15599 = biological target: NHERF2_2, Q15599
Sequence of NHERF2_2, Q15599 (Q15599 142-238): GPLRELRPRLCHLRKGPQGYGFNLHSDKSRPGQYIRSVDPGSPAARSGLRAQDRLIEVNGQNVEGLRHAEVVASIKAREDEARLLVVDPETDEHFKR

SNTG2, Q9NY99 = biological target: T8, SNTG2, Q9NY99
T8 sequence (Q9NY99 68-166, limits assumed, looked up): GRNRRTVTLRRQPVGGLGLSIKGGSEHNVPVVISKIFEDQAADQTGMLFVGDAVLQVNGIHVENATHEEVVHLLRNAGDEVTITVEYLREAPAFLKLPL

SYNJ2BP, P57105 = biological target: T9, SYNJ2BP, P57105
T9 sequence (P57105 8-110, limits assumed, looked up): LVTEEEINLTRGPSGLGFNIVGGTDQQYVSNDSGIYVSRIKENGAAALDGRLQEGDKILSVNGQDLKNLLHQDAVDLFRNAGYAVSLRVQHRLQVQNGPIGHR

MAGI2_5, Q86UL8 = biological target: MAGI2_5, Q86UL8
Sequence of MAGI2_5, Q86UL8 (Q86UL8 915-1017): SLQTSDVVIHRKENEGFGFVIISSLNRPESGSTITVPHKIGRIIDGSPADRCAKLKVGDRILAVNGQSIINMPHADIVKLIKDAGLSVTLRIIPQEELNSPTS

Inadl_3, Q8NI35 = biological target: Inadl_3, Q8NI35
Sequence of Inadl_3, Q8NI35 (Q8NI35 359-469): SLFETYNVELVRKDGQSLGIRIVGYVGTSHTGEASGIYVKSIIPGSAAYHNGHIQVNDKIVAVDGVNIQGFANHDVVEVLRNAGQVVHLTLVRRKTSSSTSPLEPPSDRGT

NOS1, P29475 = biological target: NOS1, P29475
Sequence of NOS1, P29475 (P29475 9-101): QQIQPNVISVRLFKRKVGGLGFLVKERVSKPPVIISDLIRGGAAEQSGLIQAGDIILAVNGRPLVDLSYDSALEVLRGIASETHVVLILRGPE

TJP1_2, Q07157 = biological target: TJP1_2, Q07157
Sequence of TJP1_2, Q07157 (Q07157 181-274): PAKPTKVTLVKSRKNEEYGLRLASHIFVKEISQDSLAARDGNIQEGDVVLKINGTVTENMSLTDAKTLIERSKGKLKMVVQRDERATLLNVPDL

ARHGEF12, Q9NZN5-2 = biological target: ARHGEF12, Q9NZN5-2
Sequence of ARHGEF12, Q9NZN5-2 (Q9NZN5 other isoform, or with tags, fused parts or gaps): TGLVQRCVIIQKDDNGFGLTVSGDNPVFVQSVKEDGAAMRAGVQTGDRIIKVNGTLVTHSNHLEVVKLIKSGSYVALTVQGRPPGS

PCLO, Q9Y6V0 = biological target: T10, PCLO, Q9Y6V0
T10 sequence (Q9Y6V0 4491-4600, limits assumed, looked up): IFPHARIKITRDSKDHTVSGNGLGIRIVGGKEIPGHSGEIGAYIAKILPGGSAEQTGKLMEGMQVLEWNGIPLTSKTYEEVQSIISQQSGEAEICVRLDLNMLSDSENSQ

HTRA4, P83105 = biological target: T11, HTRA4, P83105
T11 sequence (P83105 378-476, limits assumed, looked up): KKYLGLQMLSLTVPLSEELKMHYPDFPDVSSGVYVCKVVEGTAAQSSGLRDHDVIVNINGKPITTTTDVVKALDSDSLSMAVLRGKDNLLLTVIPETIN

SNTG1, Q9NSN8 = biological target: T12, SNTG1, Q9NSN8
T12 sequence (Q9NSN8 52-150, limits assumed, looked up): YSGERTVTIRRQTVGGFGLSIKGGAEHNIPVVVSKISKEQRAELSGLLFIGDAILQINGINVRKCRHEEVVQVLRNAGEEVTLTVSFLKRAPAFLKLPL

[1] = modified: phospho on T at position -2 from the C-terminal residue
[2] = plain residues with an end cap or a label only (N-terminal biotin on a linker: ado-ado)

Question: What does the source list for SKPTRRETEV [HPV35-E6_-2P, P27228]?
Answer: pKd (HTRA3, P83110; [1]): below the threshold; pKd (PARD3B_1, Q8TEW8; [1]): below the threshold; pKd (SCRIB_2, Q14160; [1]): below the threshold; pKd (MPP7, Q5T2T1; [1]): below the threshold; pKd (DLG2_2, Q15700; [1]): 3.51; pKd (SIPA1L2, Q9P2F8; [1]): below the threshold; pKd (Inadl_9, Q8NI35; [1]): below the threshold; pKd (PARD3_3, Q8TEW0; [1]): below the threshold; pKd (IL16_1, Q14005; [1]): below the threshold; pKd (SNTA1, Q13424; [1]): below the threshold; pKd (MAST1, Q9Y2H9; [1]): below the threshold; pKd (Inadl_4, Q8NI35; [1]): below the threshold; pKd (LNX2_3, Q8N448; [1]): below the threshold; pKd (ARHGEF11, O15085; [1]): below the threshold; pKd (NHERF4_1, Q86UT5-2; [1]): 3.6; pKd (NHERF2_2, Q15599; [1]): below the threshold; pKd (SNTG2, Q9NY99; [1]): below the threshold; pKd (SYNJ2BP, P57105; [1]): below the threshold; pKd (MAGI2_5, Q86UL8; [1]): below the threshold; pKd (Inadl_3, Q8NI35; [1]): below the threshold; pKd (NOS1, P29475; [1]): below the threshold; pKd (TJP1_2, Q07157; [1]): below the threshold; pKd (ARHGEF12, Q9NZN5-2; [1]): below the threshold; pKd (PCLO, Q9Y6V0; [1]): below the threshold; pKd (HTRA4, P83105; [1]): below the threshold; pKd (SNTG1, Q9NSN8; [1]): below the threshold

Question: What does the source list for YNNCLEILRV [DCAF7, P61962]?
Answer: pKd (HTRA3, P83110; [2]): below the threshold; pKd (PARD3B_1, Q8TEW8; [2]): 4.01; pKd (SCRIB_2, Q14160; [2]): below the threshold; pKd (MPP7, Q5T2T1; [2]): below the threshold; pKd (DLG2_2, Q15700; [2]): below the threshold; pKd (SIPA1L2, Q9P2F8; [2]): below the threshold; pKd (Inadl_9, Q8NI35; [2]): 3.57; pKd (PARD3_3, Q8TEW0; [2]): 3.97; pKd (IL16_1, Q14005; [2]): below the threshold; pKd (SNTA1, Q13424; [2]): below the threshold; pKd (MAST1, Q9Y2H9; [2]): 4.08; pKd (Inadl_4, Q8NI35; [2]): below the threshold; pKd (LNX2_3, Q8N448; [2]): below the threshold; pKd (ARHGEF11, O15085; [2]): 3.78; pKd (NHERF4_1, Q86UT5-2; [2]): below the threshold; pKd (NHERF2_2, Q15599; [2]): below the threshold; pKd (SNTG2, Q9NY99; [2]): below the threshold; pKd (SYNJ2BP, P57105; [2]): below the threshold; pKd (MAGI2_5, Q86UL8; [2]): below the threshold; pKd (Inadl_3, Q8NI35; [2]): below the threshold; pKd (NOS1, P29475; [2]): below the threshold; pKd (TJP1_2, Q07157; [2]): 4.25; pKd (ARHGEF12, Q9NZN5-2; [2]): below the threshold; pKd (PCLO, Q9Y6V0; [2]): below the threshold; pKd (HTRA4, P83105; [2]): 4.68; pKd (SNTG1, Q9NSN8; [2]): below the threshold

Question: For RRLPGKETMA [GRIK2, Q13002], which pKd (HTRA3, P83110; [2]) is on record?
Answer: below the threshold

Question: And the pKd (PARD3B_1, Q8TEW8; [2])?
Answer: below the threshold

Question: What about the pKd (SCRIB_2, Q14160; [2]) of the same binder?
Answer: below the threshold

Question: What about the pKd (MPP7, Q5T2T1; [2]) of the same binder?
Answer: below the threshold

Question: What about the pKd (DLG2_2, Q15700; [2]) of the same binder?
Answer: below the threshold

Question: And the pKd (SIPA1L2, Q9P2F8; [2])?
Answer: below the threshold

Question: And the pKd (Inadl_9, Q8NI35; [2])?
Answer: below the threshold

Question: What about the pKd (PARD3_3, Q8TEW0; [2]) of the same binder?
Answer: below the threshold

Question: What about the pKd (IL16_1, Q14005; [2]) of the same binder?
Answer: below the threshold

Question: And the pKd (SNTA1, Q13424; [2])?
Answer: below the threshold

Question: What about the pKd (MAST1, Q9Y2H9; [2]) of the same binder?
Answer: below the threshold

Question: And the pKd (Inadl_4, Q8NI35; [2])?
Answer: below the threshold

Question: What about the pKd (LNX2_3, Q8N448; [2]) of the same binder?
Answer: below the threshold

Question: What about the pKd (ARHGEF11, O15085; [2]) of the same binder?
Answer: below the threshold

Question: And the pKd (NHERF4_1, Q86UT5-2; [2])?
Answer: below the threshold

Question: What about the pKd (NHERF2_2, Q15599; [2]) of the same binder?
Answer: below the threshold

Question: What about the pKd (SNTG2, Q9NY99; [2]) of the same binder?
Answer: below the threshold

Question: What about the pKd (SYNJ2BP, P57105; [2]) of the same binder?
Answer: below the threshold

Question: And the pKd (MAGI2_5, Q86UL8; [2])?
Answer: below the threshold

Question: And the pKd (Inadl_3, Q8NI35; [2])?
Answer: below the threshold

Question: And the pKd (NOS1, P29475; [2])?
Answer: below the threshold

Question: And the pKd (TJP1_2, Q07157; [2])?
Answer: below the threshold

Question: What about the pKd (ARHGEF12, Q9NZN5-2; [2]) of the same binder?
Answer: below the threshold

Question: What about the pKd (PCLO, Q9Y6V0; [2]) of the same binder?
Answer: below the threshold

Question: And the pKd (HTRA4, P83105; [2])?
Answer: below the threshold

Question: And the pKd (SNTG1, Q9NSN8; [2])?
Answer: below the threshold

Question: Which pKd (HTRA3, P83110; [2]) does the source give for LGRSTPQSEV [DGKH, Q86XP1] here?
Answer: below the threshold

Question: And the pKd (PARD3B_1, Q8TEW8; [2])?
Answer: below the threshold

Question: And the pKd (SCRIB_2, Q14160; [2])?
Answer: below the threshold

Question: And the pKd (MPP7, Q5T2T1; [2])?
Answer: below the threshold

Question: What about the pKd (DLG2_2, Q15700; [2]) of the same binder?
Answer: 3.58

Question: What about the pKd (SIPA1L2, Q9P2F8; [2]) of the same binder?
Answer: below the threshold

Question: What about the pKd (Inadl_9, Q8NI35; [2]) of the same binder?
Answer: below the threshold

Question: And the pKd (PARD3_3, Q8TEW0; [2])?
Answer: below the threshold

Question: And the pKd (IL16_1, Q14005; [2])?
Answer: below the threshold

Question: What about the pKd (SNTA1, Q13424; [2]) of the same binder?
Answer: 3.8

Question: And the pKd (MAST1, Q9Y2H9; [2])?
Answer: 4.19

Question: And the pKd (Inadl_4, Q8NI35; [2])?
Answer: below the threshold

Question: What about the pKd (LNX2_3, Q8N448; [2]) of the same binder?
Answer: below the threshold

Question: What about the pKd (ARHGEF11, O15085; [2]) of the same binder?
Answer: 4.15

Question: And the pKd (NHERF4_1, Q86UT5-2; [2])?
Answer: below the threshold

Question: What about the pKd (NHERF2_2, Q15599; [2]) of the same binder?
Answer: below the threshold

Question: And the pKd (SNTG2, Q9NY99; [2])?
Answer: below the threshold

Question: What about the pKd (SYNJ2BP, P57105; [2]) of the same binder?
Answer: 4.49

Question: And the pKd (MAGI2_5, Q86UL8; [2])?
Answer: below the threshold

Question: What about the pKd (Inadl_3, Q8NI35; [2]) of the same binder?
Answer: below the threshold

Question: What about the pKd (NOS1, P29475; [2]) of the same binder?
Answer: below the threshold

Question: And the pKd (TJP1_2, Q07157; [2])?
Answer: below the threshold

Question: And the pKd (ARHGEF12, Q9NZN5-2; [2])?
Answer: 4.18

Question: What about the pKd (PCLO, Q9Y6V0; [2]) of the same binder?
Answer: below the threshold

Question: And the pKd (HTRA4, P83105; [2])?
Answer: below the threshold

Question: And the pKd (SNTG1, Q9NSN8; [2])?
Answer: 3.96

Reference: paper PMC9482650, “Quantitative fragmentomics allow affinity mapping of interactomes” (Nature Communications, 2022)
